These results are taken from US20240076386A1 (Pfizer, published 2024).

Changes are numbered by the printed parent chain. Some results are limits rather than exact numbers.

The EC50 is the concentration at which the effect is half-maximal.

For assay [1], the target named is T1, human E-selectin extracellular domain with 10 His purification tail (human, UniProt P16581 22-556).
T1 construct: also called soluable human E-selectin extracellular domain; rhE-Selectin
T1 sequence: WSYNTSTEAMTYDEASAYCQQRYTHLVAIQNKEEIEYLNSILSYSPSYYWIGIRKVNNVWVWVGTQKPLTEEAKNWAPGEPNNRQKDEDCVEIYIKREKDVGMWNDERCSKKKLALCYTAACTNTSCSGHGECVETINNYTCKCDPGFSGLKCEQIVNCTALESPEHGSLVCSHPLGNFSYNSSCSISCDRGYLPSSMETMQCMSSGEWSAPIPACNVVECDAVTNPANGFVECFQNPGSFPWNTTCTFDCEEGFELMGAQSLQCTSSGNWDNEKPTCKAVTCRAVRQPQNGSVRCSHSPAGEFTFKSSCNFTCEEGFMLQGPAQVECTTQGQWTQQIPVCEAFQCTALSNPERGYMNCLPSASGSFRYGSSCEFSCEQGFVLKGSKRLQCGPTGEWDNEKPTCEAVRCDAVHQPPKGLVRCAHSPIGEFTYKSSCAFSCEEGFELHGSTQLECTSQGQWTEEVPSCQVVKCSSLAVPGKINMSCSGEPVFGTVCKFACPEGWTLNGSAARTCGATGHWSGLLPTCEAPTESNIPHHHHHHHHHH
The experiment in a line: AlphaLISA competition vs sialyl Lewis A-PAA-biotin. The procedure:
The neutralization ability of anti-E-selectin antibodies was measured in an AlphaLISA homogenous competition assay. […] This was incubated at room temperature for 15 minutes, followed by addition of 1.4 μL of human, mouse or cynomolgus monkey E-selectin added to a final concentration of 7 nM. This was again incubated at room temperature for 15 minutes. To this, 1.4 μL AlphaLISA beads was added (Ni-donor/SA-acceptor) for a final assay concentration of 10 μg/mL. This was incubated in the dark at room temperate for at least 10 hours. The plates were then read using the AlphaLISA protocol (Envision).

The target of assay [2] is T2, cynomolgus monkey E-selectin, cell-surface expressed (cynomolgus monkey, UniProt P16581 22-610 (human entry)).
T2 construct: also called CHO-cynomolgus monkey E-selectin cells; cynomolgus monkey CHO-E
T2 chain: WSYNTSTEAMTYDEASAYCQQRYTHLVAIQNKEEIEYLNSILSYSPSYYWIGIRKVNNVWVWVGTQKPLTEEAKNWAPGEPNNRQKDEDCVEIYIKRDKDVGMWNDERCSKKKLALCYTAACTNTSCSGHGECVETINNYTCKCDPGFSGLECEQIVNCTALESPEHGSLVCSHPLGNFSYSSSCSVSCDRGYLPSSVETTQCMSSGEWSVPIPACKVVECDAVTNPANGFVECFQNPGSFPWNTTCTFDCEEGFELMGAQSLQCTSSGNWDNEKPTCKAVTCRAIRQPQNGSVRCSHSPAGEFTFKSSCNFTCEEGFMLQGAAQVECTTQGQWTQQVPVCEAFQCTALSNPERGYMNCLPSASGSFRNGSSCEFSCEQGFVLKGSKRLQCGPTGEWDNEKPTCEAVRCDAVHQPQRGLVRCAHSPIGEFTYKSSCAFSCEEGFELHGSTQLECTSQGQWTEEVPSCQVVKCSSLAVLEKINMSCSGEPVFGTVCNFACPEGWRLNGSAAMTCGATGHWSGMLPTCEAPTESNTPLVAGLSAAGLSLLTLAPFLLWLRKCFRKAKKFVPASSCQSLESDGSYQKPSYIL
The experiment in a line: flow cytometry, CHO cells. The procedure:
(§1) Cells were maintained in growth medium at 37° C., 5% CO₂ and 95% air in a humidified incubator. Methotrexate or Zeocin were removed from the medium prior to culture for experiments. CHO-E selectin cells or P-selectin cells were detached from T-150 flasks using citric saline (135 mM KCl, 15 mM sodium citrate) and immediately re-calcified with the addition of CaCl₂) to the detached cells to a final concentration of 1 mM. Growth media was immediately added to the detached cells, then centrifuged at 300×g for 5 minutes at room temperature to pellet the cells. Cells were plated into 96-well V-bottom plates in cold CHO buffer consisting of phosphate buffered saline (PBS), pH 7.4 containing bovine serum albumin (BSA; Sigma-Aldrich) at final concentration of 1%, calcium chloride at final concentration of 1 mM, and sodium azide at a final concentration of 0.1%, for 5 minutes on wet ice. After incubation, the cells were centrifuged at 300×g for 2 minutes at 4° C. to remove the buffer.
(§2) After incubation, antibodies were removed and the cells were washed three times by centrifugation at 300×g for 1 minute at 4° C. and resuspended in cold CHO buffer. The washed cells were incubated for 30 minutes on wet ice with 100 μL of a 1:1000 dilution of APC-conjugated AffiniPure F(ab′)₂ Fragment Goat Anti-human IgG, Fcγ (Jackson Imnnunoresearch). The cells were washed three or four times prior to resuspension in CHO buffer for flow cytometric analysis. A Becton Dickinson LSRFortessa instrument using 640 nanometer laser line was used to acquire cell fluorescence data. Geometric mean fluorescence of cells was analyzed by FlowJo software package (FlowJo, LLC) and plotted against antibody concentration. The estimated EC₅₀ values were calculated using nonlinear regression analysis in the Prism suite (GraphPad, version 8) (Table 8).
(Flow cytometry measures light scatter and fluorescence of single cells or particles in a stream.)

Assay [3] addresses T3, human E-selectin, cell-surface expressed (human, UniProt P16581 22-610).
T3 construct: also called CHO-human E-selectin cells; human CHO-E
T3 sequence: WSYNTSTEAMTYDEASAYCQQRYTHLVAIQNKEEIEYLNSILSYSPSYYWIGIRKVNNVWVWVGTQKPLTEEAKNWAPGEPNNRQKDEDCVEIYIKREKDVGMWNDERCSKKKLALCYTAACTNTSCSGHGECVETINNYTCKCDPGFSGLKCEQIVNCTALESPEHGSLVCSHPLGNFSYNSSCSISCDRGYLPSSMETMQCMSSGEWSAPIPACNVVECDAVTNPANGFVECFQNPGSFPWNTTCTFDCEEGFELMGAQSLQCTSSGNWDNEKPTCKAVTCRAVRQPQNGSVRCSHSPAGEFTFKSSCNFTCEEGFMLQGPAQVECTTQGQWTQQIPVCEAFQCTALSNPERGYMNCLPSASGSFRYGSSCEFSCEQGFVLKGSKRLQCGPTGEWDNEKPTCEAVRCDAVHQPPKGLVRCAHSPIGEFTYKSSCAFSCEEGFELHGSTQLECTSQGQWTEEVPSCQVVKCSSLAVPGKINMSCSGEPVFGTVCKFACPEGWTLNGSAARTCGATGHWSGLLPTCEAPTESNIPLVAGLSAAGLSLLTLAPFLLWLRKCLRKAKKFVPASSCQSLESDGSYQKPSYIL
The experiment in a line: flow cytometry, CHO cells. The procedure: as §1, §2

B1: anti-E-selectin antibody 0159 chimera (antibody, human IgG1, kappa, V domains shown)
VH: EVQLQQSGAELGKPGTSVKLSCKVSGYNIRSTYMHWVSQRPGKGLEWIGRIDPANGNTIYAEKFKRKATLTADTSSNTAYMQLSQLKSDDRAIYFCAMEVRVSFEYWGQGVMVTVSS
VL: DIQMTQSPSFLSASVGDRVTINCKASQNINKYLDWYQQKLGEGPKLLIYYTNNLHTGIPSRFSGSGSGTDFTLTISSLQPEDVATYFCLQHDSGYTFGAGTKLELKR
notes: rat VH/VL on effector-null human IgG1 and human kappa
In the case of B1, the EC50 in assay [1] is under 1 nM; in assay [2], 3.37 nM; in assay [3], 2.44 nM.

B2: anti-E-selectin antibody 0170 chimera (antibody, human IgG1, kappa, V domains shown)
VH: EVQLQQSGAELGKPGTSVKLSCKVSGYSIRSTYMHWVNQRPGKGLEWVGRIDPANGNTIYAERFKNKATLTADTSSNTAYMQLSQLKSDDTAIYFCAVEILGIFDYWGQGVMVTVSS
VL: B1 VL with N30D, G43A, I48M, Y50N, N53S, D92N
notes: as for B1
On to B2, for which the concentration giving a half-maximal response (EC50) in assay [1] was under 1 nM; in assay [2] it was 3.76 nM; in assay [3], 1.99 nM.

B3: anti-E-selectin antibody 0180 chimera (antibody, human IgG1, kappa, V domains shown)
VH: EVQLQQSGAELGKPGTSVKLSCKVSGYKIRSSYMHWVNQRPGKGLEWIGRIDPANGNTIYGDKFKSKATLTSDTSSNTAYIQLSQLKSDDTAIYFCAIDIGTTFDYWGQGVMVTVSS
VL: DIQMTQSPSFLSASVGDRVTINCKASQHINRYLNWYQQKLGEAPKLLIYDANNLQTGIPSRFSGSGSGTDFTLTISSLQPEDVATYFCLQHNSWPNTFGAGTKLELKR
notes: as for B1
On to B3, for which the concentration for a half-maximal effect (EC50) was under 1 nM in assay [1], 3.66 nM in assay [2] and 4.31 nM in assay [3].

B4: anti-E-selectin antibody 0164 chimera (antibody, human IgG1, kappa, V domains shown)
VH: EVQLQQSGAEFGKPGTSVKLSCKVSGYNIRSSYMHWVNQRPGKGLEWIGRIDPANGNTIYAEKFKIKAILTADSSSNTAYMQLSQLKSDDTAIYFCAMDLYSTSEYWGQGVMVTVSS
VL: B3 VL with A25T, H28N, D50N, N53S, G64A, S76N, H91D, N96L, A100S, L106I
notes: as for B1
As for B4, the EC50 in assay [1] is under 1 nM; in assay [2], 1.73 nM; in assay [3], 4.43 nM.

B5: anti-E-selectin antibody 0158 chimera (antibody, human IgG1, kappa, V domains shown)
VH: QVQLKESGPGLVQPSETLSLTCTVSGFSISTYNVHWLRQPPGKGLEWMGMMWSGGSPDYNSALKSRLSISRDTSKNQVFLKMNSLQSEDTTTYYCARWGGGFDYWGQGVMVTVSS
VL: DIVLTQSPTTLSVTPGETVSLSCRASHSIGTNLHWYQQKTNESPRLLIKFTSQSISGIPSRFSASGSGTDFTLNINNVEFDDVSSYFCQQTQSWPLTFGSGTKLEIKR
notes: as for B1
As to B5, the results for the EC50 in assay [1], in assay [2] and in assay [3] were under 1 nM, 14 nM and 3.75 nM, respectively.

B6: anti-E-selectin antibody 0039 chimera (antibody, human IgG1, kappa, V domains shown)
VH: QVQLKETGPGLVQPTQTLSITCTVSGFSLTGYYMQWVRQTPGKGLEWMGFIRSSGSTEYNSEFKSRLSISRDTSKNQVFLKMNSLKTEDTGVYYCARCPYKYSSFVYVGVMDAWGQGAPVTVSS
VL: EIVMTQSPTSMSTSIGERVTLNCKASQTVGINVDWYQQTPGQPPKLLIYGASNRHTGVPDRFTGSGFGRDFTLTISNVEAEDLAVYCCLQYGSIPHTFGPGTKLELKR
notes: as for B1
Consider B6, for which the figures for the concentration giving a half-maximal response (EC50) in assay [1], in assay [2] and in assay [3] were under 1 nM, 4.07 nM and 4.99 nM, respectively.
